# Measurements taken from FireProtDB (doi:10.1002/pro.5560070228).
# Where “and” joins values, the source holds several entries; their conditions need not be identical. Equal values may be shown once.
# Settings: Escherichia coli (strain K12), pH 7, Potassium phosphate 50 mM, KCl 100 mM, reversible: yes
# Sequence of Cold shock protein CspA wild type, P0A9X9 (P0A9X9 whole entry): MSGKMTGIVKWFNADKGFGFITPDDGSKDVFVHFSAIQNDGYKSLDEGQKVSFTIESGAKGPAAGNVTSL
substance,measurement,setting,value
"Cold shock protein CspA wild type, P0A9X9",denaturant m value,"10 °C, GdnHCl, Fluorescence",1.7 kcal/mol/M and 2.4 kcal/mol/M and 2.1 kcal/mol/M
same,denaturant midpoint (higher = more stable),"10 °C, GdnHCl, Fluorescence",1.8 M and 1.6 M
same,unfolding free energy,"10 °C, GdnHCl, Fluorescence",3.1 kcal/mol and 3.8 kcal/mol and 3.3 kcal/mol
same,denaturant m value,"10 °C, Urea, Fluorescence",0.59 kcal/mol/M and 0.66 kcal/mol/M and 0.64 kcal/mol/M
same,denaturant midpoint (higher = more stable),"10 °C, Urea, Fluorescence",4.9 M and 5 M and 4.5 M
same,unfolding free energy,"10 °C, Urea, Fluorescence",2.9 kcal/mol and 3.3 kcal/mol and 2.8 kcal/mol
same,denaturant m value,"25 °C, GdnHCl, CD",1.7 kcal/mol/M and 2.9 kcal/mol/M and 2.1 kcal/mol/M
same,denaturant midpoint (higher = more stable),"25 °C, GdnHCl, CD",1.5 M and 1.3 M and 1.6 M
same,unfolding free energy,"25 °C, GdnHCl, CD",2.4 kcal/mol and 3.7 kcal/mol and 3.3 kcal/mol
same,denaturant m value,"25 °C, GdnHCl, Fluorescence",2.2 kcal/mol/M and 2 kcal/mol/M
same,denaturant midpoint (higher = more stable),"25 °C, GdnHCl, Fluorescence",1.4 M and 1.6 M
same,unfolding free energy,"25 °C, GdnHCl, Fluorescence",3.1 kcal/mol and 3.2 kcal/mol and 3 kcal/mol
same,denaturant m value,"25 °C, Urea, CD",0.6 kcal/mol/M and 0.7 kcal/mol/M
same,denaturant midpoint (higher = more stable),"25 °C, Urea, CD",4 M and 4.5 M and 4.1 M
same,unfolding free energy,"25 °C, Urea, CD",2.6 kcal/mol and 3.1 kcal/mol
same,denaturant m value,"25 °C, Urea, Fluorescence",0.71 kcal/mol/M and 0.69 kcal/mol/M and 0.78 kcal/mol/M
same,denaturant midpoint (higher = more stable),"25 °C, Urea, Fluorescence",4.2 M
same,unfolding free energy,"25 °C, Urea, Fluorescence",3 kcal/mol and 2.9 kcal/mol and 3.2 kcal/mol
